Measured values from paper PMC5378893 (Scientific Reports, 2015).

B1: GH2-8 IgG (antibody, V domains shown)
VH: GVQLVESGGGLVQPGGSLRLSCAASGFTIGSSGIHWVRQAPGKGLEWVAGIWPYWGSTYYADSVKGRFTISADTSKNTAYLQMNSLRAEDTAVYYCARFGVGYHYYMDYWGQGTLVTVSS
VL: DIQMTQSPSSLSASVGDRVTITCRASQDVGWWVAWYQQKPGKAPKLLISGATGLYSGVPSRFSGSGSGTDFTLTISSLQPEDFATYYCQQSWDSPITFGQGTKVEIK
notes: source: HEK293-F, transient transfection, purified (Protein A, Superdex 200)
B2: GH2-95 IgG (antibody, V domains shown)
VH: EVQLVESGGGLVQPGGSLRLSCAASGFTIDSWGIHWVRQAPGKGLEWVAGIGPFWGYTSYADSVKGRFTISADTSKNTAYLQMNSLRAEDTAVYYCARFGIHFDGIMDYWGQGTLVTVSS
VL: DIQMTQSPSSLSASVGDRVTITCRASQDVSGGVAWYQQKPGKAPKLLIFGSTWLYSGVPLRFSGSGSGTDFTLTISSLQPEDFATYYCQQYYDWPLTFGQGTKVEIK
notes: as for B1
B3: GH2-96 IgG (antibody, V domains shown)
VH: EVQLVESGGGLVQPGGSLRLSCAASGFTISGYGIHWVRQAPGKGLEWVAGIGPFWGYTFYADSVKGRFTISADTSKNTAYLQMNSLRAEDTAVYYCARFGHIVDGLMDYWGQGTLVTVSS
VL: DIQMTQSPSSLSASVGDRVTITCRASQDVNGGVAWYQQKPGKAPKLLIYGSSWLYSGVPSRFSGSGSGTDFTLTISSLQPEDFATYYCQQYFDWPITFGQGTKVEIK
notes: as for B1
B4: GH2-98 IgG (antibody, V domains shown)
VH: EVQLVESGGGLVQPGGSLRLSCAASGFTINNYGIHWVRQAPGKGLEWVAGIGPSWGFTYYADSVKGRFTISADTSKNTAYLQMNSLRAEDTAVYYCARFGFYNDGFMDYWGQGTLVTVSS
VL: DIQMTQSPSSLSASVGDRVTITCRASQDVGSGVAWYQQKPGKAPKLLIYFSASLYSGVPSRFSGSGSGTDFTLTISSLQPEDFATYYCQQYYNWPLTFGQGTKVEIK
notes: as for B1
B5: GH2-102 IgG (antibody, V domains shown)
VH: EVQLVESGGGLVQPGGSLRLSCAASGFTINGGGIHWVRQAPGKGLEWVASIGPYGGYTSYADSVKGRFTISADTSKNTAYLQMNSLRAGDTAVYYCARFGHHYDGHMDYWGQGTLVTVSS
VL: DIQMTQSPSSLSASVGDRVTITCRASQDVGSNVAWYQQKPGKAPKLLIYGAPYLYSGVPSRFSGSGSGTDFTLTISSLQPEDFATYYCQQYYNWPLTFGQGTKVEIK
notes: as for B1
B6: GH2-104 IgG (antibody, V domains shown)
VH: EVQLVESGGGLVQPGGSLRLSCAASGFTIDSWGIHWVRQAPGKGLEWVAGIGPFGGYTSYADSVKGRFTISADTSKNTAYLQMNSLRAEDTAVYYCARFGDYIDGVMDYWGQGTLVTVSS
VL: DIQMTQSPSSLSASVGDRVTITCRASQDVNSNVAWYQQKPGKAPKLLIYGSPSLYSGVPSRFSGSGSGTDFTLTISSLQPEDFATYYCQQYYDWPLTFGQGTKVEIK
notes: as for B1
B7: M32 IgG (mouse anti-HER2/ECD) (antibody, V domains shown)
VH: EVQLVESGAELVRPGALVKLSCKASGFNIKDYFMYWVKQRPEQGLEWVGWIDPENGNTIYDPKFQGKASITADTSSNTAYLQLSSLTSEDTAVYYCTRGYYGSRVLAMDYWGQGTSVTVSS
VL: GIELTQSQKFMSTSVGDRVSITCKASQNVGTAVAWYQQKPGQSPKLLIYSASNRYTGVPDRFTGSGSGTDFTLTISNMQSEDLADYFCQQYSSYPLAFGGGTKLEIK
notes: mouse VL; L49~L53 YSASN; L91~L96 YSSYPL; mouse VH; H50~H58 WIDPENGNTI; H96~H100B YYGSRVL; recombinant IgG from a scFv of an immunized mouse's phage library; source: HEK293-F, transient transfection, purified (Protein A, Superdex 200)
B8: M41 IgG (mouse anti-HER2/ECD) (antibody, V domains shown)
VH: EVQLQQSGAELVKPGASVKMSCKAFGYTFTTYPIEWMKQNHGKSLEWIGNFHPYNDYTNYNEKFKGKAKLTVEKSSTTVYLELSRLTSDDSAVYYCARRHDGYYGAMDYWGQGTSVTVSS
VL: DIQMTQTTSSLSASLGDRVTISCRTSQDISNYLNWYQQKPNGTIKLLIYYTSGLYSGVPSRFSGSGSGADYSLTISNVEQEDIATYFCQQVNTLPYTFGGGTKLELK
notes: mouse VL; L49~L53 YYTSG; L91~L96 VNTLPY; mouse VH; H50~H58 NFHPYNDYTN; H96~H100B HDGYYGA; recombinant IgG from a scFv of an immunized mouse's phage library; source: HEK293-F, transient transfection, purified (Protein A, Superdex 200)
B9: M61 IgG (mouse anti-HER2/ECD) (antibody, V domains shown)
VH: EVQLQQSGAELVKPGASVKMSCKAFGYTFTTYPIEWMKQNHGKSLEWIGNFHPYNDDTKYNEKFKGKAKLTVEKSSSTVYLELSRLTSDDSAVYYCARRNDGYYGAMDYWGQGTSVTVSS
VL: DIKITQSPASLSASVGETVTITCRASENIYSYLAWYQQKQGKSPQLLVYNAKTLAEGVPSRFSGSGSGTQFSLKINSLQPEDFGSYYCQHHYGTPYTFGGGTKLELK
notes: mouse VL; L49~L53 YNAKT; L91~L96 HYGTPY; mouse VH; H50~H58 NFHPYNDDTK; H96~H100B NDGYYGA; recombinant IgG from a scFv of an immunized mouse's phage library; source: HEK293-F, transient transfection, purified (Protein A, Superdex 200)
B10: M62 IgG (mouse anti-HER2/ECD) (antibody, V domains shown)
VH: EVQLQQSGTELARPGASVKLSCKASGYTFIDYYITWVKQRTGQGLEWIGEIYPGGGNPYYNDNFKGKASLTADKSSNTVYMQLSSLTSEDSAVYFCARSYKYDVSVYWGQGTLVTVSA
VL: DIQMIQSQKFMSTSVGDRVSVTCKASQNVGTNVAWYQQKPGQSPKALIHSASYRYSGVPDRFTGSGSGTDFTLTISNVQSEDLAEYFCQQYNSYPLTFGAGTKLEIK
notes: mouse VL; L49~L53 HSASY; L91~L96 YNSYPL; mouse VH; H50~H58 EIYPGGGNPY; H96~H100B YKYDVS; recombinant IgG from a scFv of an immunized mouse's phage library; source: HEK293-F, transient transfection, purified (Protein A, Superdex 200)
B11: M64 IgG (mouse anti-HER2/ECD) (antibody, V domains shown)
VH: EVQLQQSGAELVKPGASVKLSCTASGFNIKNTYMHWVKQRPEQGLEWIGRIDPANGNTKYDPKLQGKATITADTSSNTAYLHLSSLTSEDTAVYYCVPYYRGAMDYWGQGTSVTVSS
VL: DIQMNQSHKFMSTSVGDRVSITCKASQDVSTAVAWYQQKPGQSPKLLIYWASTRHTGVPGRFTGSGSGADYTLTISSVQAEDLALYYCQQHYSTPYTFGGGTKLEIK
notes: mouse VL; L49~L53 YWAST; L91~L96 HYSTPY; mouse VH; H50~H58 RIDPANGNTK; H96~H100B YRGAM; recombinant IgG from a scFv of an immunized mouse's phage library; source: HEK293-F, transient transfection, purified (Protein A, Superdex 200)
B12: GH2-13 IgG (antibody, V domains shown)
VH: EVQLVESGGGLVQPGGSLRLSCAASGFTISDGGIHWVRQAPGKGLEWVAGIWPYWGYTSYADSVKGRFTISADTSKNTAYLQMNSLRAEDTAVYYCARFDNNWVGNMDYWGQGTLVTVSS
VL: DIQMTQSPSSLSASVGDRVTITCRASQDVYFGVAWYQQKPGKAPKLLISGTTSLYSGVPSRFSGSGSGTDFTLTISSLQPEDFATYYCQQYGSYPITFGQGTKVEIK
notes: as for B1
B13: GH2-14 IgG (antibody, V domains shown)
VH: EVQLVESGGGLVQPGGSLRLSCAASGFTINDHGIHWVRQAPGKGLEWVAGIGPFGGYTSYADSVKGRFTISADTSKNTAYLQMNSLRAEDTAVYYCARFNFNDVGGMDYWGQGTLVTVSS
VL: DIQMTQSPSSLSASVGDRVTITCRASQDVGGGVAWYQQKPGKAPKLLISGPPYLYSGVPSRFSGSGSGTDFTLTISSLQPEDFATYYCQQYFNYPITFGQGTKVEIK
notes: as for B1
B14: GH2-3 IgG (antibody, V domains shown)
VH: EVQLVESGGGLVQPGGSLRLSCAASGFTISGGWIHWVRQAPGKGLEWVAGIWPSGGSTSYADSVKGRFTISADTSKNTAYLQMNSLRAEDTAVYYCARFYFGFGDLMDYWGQGTLVTVSS
VL: DIQMTQSPSSLSASVGDRVTITCRASQDVNNNVAWYQQKPGKAPKLLIYGARYLYSGVPSRFSGSGSGTDFTLTISSLQPEDFATYYCQQFGGGPLTFGQGTKVEIK
notes: as for B1
B15: GH2-16 IgG (antibody, V domains shown)
VH: EVQLVESGGGLVQPGGSLRLSCAASGFTINNWGIHWVRQAPGKGLEWVAGIWPFGGYTYYADSVKGRFTISADTSKNTAYLQMNSLRAEDTAVYYCARFDYLNNGGMDYWGQGTLVTVSS
VL: DIQMTQSPSSLSASVGDRVTITCRASQDVYSSVAWYQQKPGKAPKLLISYTSYLYSGVPSRFSGSGSGTDFTLTISSLQPEDFATYYCQQYYGGPMTFGQGTKVEIK
notes: as for B1
B16: GH2-18 IgG (antibody, V domains shown)
VH: EVQLVESGGGLVQPGGSLRLSCAASGFTISNWGIHWVRQAPGKGLEWVAGIWPYGGYTFYADSVKGRFTISADTSKNTAYLQMNSLRAEDTAVYYCARFNYLNLGGMDYWGQGTLVTVSS
VL: DIQMTQSPSSLSASVGDRVTITCRASQDVNSNVAWYQQKPGKAPKLLIYWTTGLYSGVPSRFSGSGSGTDFTLTISSLQPEDFATYYCQQYLSGPITFGQGTKVEIK
notes: as for B1
B17: GH2-21 IgG (antibody, V domains shown)
VH: EVQLVESGGGLVQPGGSLRLSCAASGFTINDYSIHWVRQAPGKGLEWVASIWPFGGSTSYADSVKGRFTISADTSKNTAYLQMNSLRAEDTAVYYCARFNYWIGIIMDYWGQGTLVTVSS
VL: DIQMTQSPSSLSASVGDRVTITCRASQDVSDNVAWYQQKPGKAPKLLIYWATGLYSGVPSRFSGSGSGTDFTLTISSLQPEDFATYYCQQYYGFPLTFGQGTKVEIK
notes: as for B1
B18: GH2-23 IgG (antibody, V domains shown)
VH: EVQLVESGGGLVQPGGSLRLSCAASGFTINGGGIHWVRQAPGKGLEWVAFIGPFGGSTFYADSVKGRFTISADTSKNTAYLQMNSLRAEDTAVYYCARFFGGNIHVMDYWGQGTLVTVSS
VL: DIQMTQSPSSLSASVGDRVTITCRASQDVFWGVAWYQQKPGKAPKLLISWSASLYSGVPSRFSGSGSGTDFTLTISSLQPEDFATYYCQQYFSFPFTFGQGTKVEIK
notes: as for B1
B19: GH2-36 IgG (antibody, V domains shown)
VH: EVQLVESGGGLVQPGGSLRLSCAASGFTIGGGGIHWVRQAPGKGLEWVAYIGPYGGYTSYADSVKGRFTISADTSKNTAYLQMNSLRAEDTAVYYCARFHDHIGGIMDYWGQGTLVTVSS
VL: DIQMTQSPSSLSASVGDRVTITCRASQDVNSNVAWYQQEPGKAPKLLIYFSSGLYSGVPSRFSGSGSGTDFTLTISSLQPEDFATYYCQQYYNWPLTFGQGTKVEIK
notes: as for B1

These binders were tested against T1, extracellular domain (ECD) of human epidermal growth factor receptor 2 (HER2) (Homo sapiens, UniProt P04626) (assay: SPR; BIAcore T200; HER2/ECD immobilised on a CM5 chip by amine coupling to 1000 RU; IgG flowed in PBST (0.05% Tween 20) at 30 uL/min; regeneration 10 mM glycine pH 1.5; global fit to a 1:1 binding model). Settings: both partners purified.
T1 construct: human epidermal growth factor receptor 2 (HER2), extracellular domain; also called HER2/ECD
B1 showed a Kd of 0.259 nM, a koff of 0.000155 s⁻¹ and a kon of 599000 M⁻¹ s⁻¹. B2 gave a Kd of 4.47 nM, a koff of 0.000244 s⁻¹ and a kon of 54700 M⁻¹ s⁻¹. For B3, the Kd was 5.42 nM, the koff was 0.00137 s⁻¹ and the kon was 254000 M⁻¹ s⁻¹. For B4, the Kd was 88.5 nM, the koff was 0.0224 s⁻¹ and the kon was 254000 M⁻¹ s⁻¹. Binder B5 has a Kd of 28.4 nM, a koff of 0.039 s⁻¹ and a kon of 1.37e+06 M⁻¹ s⁻¹. Work on B6 yielded a Kd of 1.04 nM, a koff of 0.000884 s⁻¹ and a kon of 852000 M⁻¹ s⁻¹. B7 was tested, and the Kd was 0.243 nM, the koff was 7.15e-05 s⁻¹ and the kon was 294000 M⁻¹ s⁻¹. For B8, the Kd was 0.0519 nM, the koff was 3.48e-05 s⁻¹ and the kon was 671000 M⁻¹ s⁻¹. B9 was tested, and the Kd was 0.591 nM, the koff was 0.0024 s⁻¹ and the kon was 4.06e+06 M⁻¹ s⁻¹. For B10, the Kd was 0.0228 nM, the koff was 1.8e-05 s⁻¹ and the kon was 788000 M⁻¹ s⁻¹. B11 showed a Kd of 0.195 nM, a koff of 0.000337 s⁻¹ and a kon of 1.74e+06 M⁻¹ s⁻¹. For B12, the Kd was 2.64 nM, the koff was 0.00818 s⁻¹ and the kon was 3.1e+06 M⁻¹ s⁻¹. B13 was tested, and the Kd was 17 nM, the koff was 0.00573 s⁻¹ and the kon was 336000 M⁻¹ s⁻¹. Binder B14 has a Kd of 2.07 nM, a koff of 0.000502 s⁻¹ and a kon of 242000 M⁻¹ s⁻¹. B15 was tested, and the Kd was 1.2 nM, the koff was 0.000102 s⁻¹ and the kon was 85700 M⁻¹ s⁻¹. With B16 the Kd was 0.0695 nM, the koff was 1.09e-05 s⁻¹ and the kon was 156000 M⁻¹ s⁻¹. With B17 the Kd was 1.4 nM, the koff was 0.000623 s⁻¹ and the kon was 444000 M⁻¹ s⁻¹. B18 showed a Kd of 0.827 nM, a koff of 0.00018 s⁻¹ and a kon of 217000 M⁻¹ s⁻¹. With B19 the Kd was 8.85 nM, the koff was 7.7 s⁻¹ and the kon was 8.68e+08 M⁻¹ s⁻¹.
